Data taken from patent US20110009342A1, “USES OF PDCD5 POLYPEPTIDE FOR TUMOR CHEMOTHERAPY AND ORGAN PROTECTION” (priority 2008, published 2011).

Columns and labels:
Assay type in all cases: cell-based
K562 cells [1] = assay: Annexin-V apoptosis by flow cytometry, Ara-C
Procedure: Methods: Cell staining with FITC/Annexin-V and cell apoptosis detection in vitro by flow cytometry: K562 cells (ATCC) were maintained in RPMI 1640 (Life Technologies, USA) supplemented with 10% FBS (Hyclone, USA), and were plated in 24-well culture dishes to a density of 2×10^5 cells per well. rhPDCD5 protein was added in each well with a final concentration of 15 μg/mL, 30 μg/mL and 60 μg/mL, respectively. Chemotherapeutic drug Ara-C (Pharmacia, Italia) was then added with a final concentration of 0.1 μg/mL and RPMI 1640 medium supplemented with 10% FBS was added to bring the culture system to 1 mL. After incubation for 48 hours, the cells were stained with Annexin-V/PI (Biosea) and then were analyzed for apoptosis by flow cytometry.

HL60 cells = assay: colony-forming ability (CFA) assay, As2O3
Procedure: Analysis for colony forming ability (CFA): U937 cells (ATCC), in the logarithmic phase, were maintained in RPMI 1640 medium supplemented with 20% FBS and 0.4% methyl cellulose (Sigma) by the semi-solid colony culture method and were adjusted to a density of 5×10^3 cells/mL. The cells were divided into control groups and test groups, and each group was assayed in triple wells. U937 cells in the control groups were treated with DNR alone, with the final concentrations of 0 ng/mL and 0.5 ng/mL. U937 cells in the test group were treated with DNR of various concentrations combined with PDCD5 of various concentrations, while the final concentrations of PDCD5 were 0 μg/mL, 0.625 μg/mL, 1.25 μg/mL, and 2.5 μg/mL, respectively. After incubation for 14 days in a 37° C., 5% CO2 and saturatedly humidified incubator, a colony with more than 30 cells was counted by an inverted microscope in order to analyze colony forming ability of each group. The colony forming ability was shown as the ratio of average number of colony in each group versus that of the untreated control group in which the final concentrations of DNR and PDCD5 were 0 μg/mL.
Colony-forming ability (CFA) assay: HL60 cells of logarithmic growth phase were cultured by a method identical to that in Example 8. The cells were divided into control and test groups (each with 3 wells): In the control groups, the HL60 cells were treated only with arsenic trioxide and the final concentration of which were 0 μg/mL and 0.25 μg/mL, respectively; in the test groups, the HL60 cells were treated with different concentrations of As2O3, which was combined with different concentrations of PDCD5, the final concentrations of PDCD5 were 0 μg/mL, 5 μg/mL, 10 μg/mL and 20 μg/mL, respectively. Cultures were incubated in a 37° C., 5% CO2 and saturatedly humidified incubator for 14 days. The numbers of colonies (containing≧30 cells) were counted on day 14 by inverted microscope. The colony-forming ability was observed as the ratio of the number of average colony formation in the test groups versus that in the untreated control group. […]

[2] = test system: HeLa, MGC-803, HT-29, A549, PC-3, U937, HL-60, Jurkat T lymphocytes, K562, Raji, TF-1 cells; assay: entry of exogenous PDCD5 into cell types
K562 cells [3] = assay: FITC/Annexin-V apoptosis by flow cytometry, IDR
Procedure: Methods: Cell staining with FITC/Annexin-V and cell apoptosis in vitro detection by flow cytometry: K562 cells (ATCC) were maintained in RPMI 1640 (Life Technologies, USA) supplemented with 10% FBS (Hyclone, USA), and were plated in 24-well culture dishes to a density of 2×10^5 cells/mL. rhPDCD5 protein was added with a final concentration of 7.5 μg/mL, 15 μg/mL and 30 μg/mL, respectively, in each well. Chemotherapeutic drug IDR was then added with a final concentration of 56 ng/mL and RPMI 1640 with 10% FBS was added to make the system to 1 mL. After 24 hours of co-culture, the cells were stained with FITC/Annexin-V (Baosai company) and apoptosis was detected by flow cytometry.

Jurkat cells = assay: FITC/Annexin-V apoptosis by flow cytometry, DNR
Procedure: Methods: The density of Jurkat cells were adjusted by RPMI 1640 medium (Life Technologies, USA) supplemented with 10% Fetal Bovine Serum (FBS, Hyclone, USA). […] Subsequently, DNR (Pharmacia Italia S.P.A) was added with its final concentration of 0.05 μg/mL, and RPMI 1640 medium supplemented with 10% FBS was added to ensure the system to be 1 mL. After 24h incubation, the sample was stained with FITC/Annexin-V (Beijing Biosea Biotechnology CO., LTD) and detected for apoptosis by flow cytometry.

B1: rhPDCD5: recombinant human programmed cell death 5 protein (SEQ ID NO:1) expressed in E. coli and purified (protein, listed as Homo sapiens)
chain: MADEELEALRRQRLAELQAKHGDPGDAAQQEAKHREAEMRNSILAQVLDQSARARLSNLALVKPEKTKAVENYLIQMARYGQLSEKVSEQGLIEILKKVSQQTEKTTTVKFNRRKVMDSDEDDDY
promotion of apoptosis induced by Ara-C (K562 cells [1]): could significantly promote apoptosis | enhancement of CFA inhibition by As2O3 (HL60 cells): can significantly enhance the CFA inhibition by As2O3 | effect on the CFA of HL60 (HL60 cells; rhPDCD5 alone): no significant affect | specificity for cell types while entering into cells [2]: shows no specificity for cell types | promotion of apoptosis induced by IDR (K562 cells [3]): could significantly promote apoptosis | enhancement of DNR-induced apoptosis (Jurkat cells): can significantly enhance DNR-induced apoptosis
